Measurements reported in patent US20150166663A1 (AstraZeneca / MedImmune, published 2015).
Numbering of substitutions follows the chain as printed.

T1: cynomolgus β6 on transfected HEK-293 cells (cynomolgus)
T1 chain: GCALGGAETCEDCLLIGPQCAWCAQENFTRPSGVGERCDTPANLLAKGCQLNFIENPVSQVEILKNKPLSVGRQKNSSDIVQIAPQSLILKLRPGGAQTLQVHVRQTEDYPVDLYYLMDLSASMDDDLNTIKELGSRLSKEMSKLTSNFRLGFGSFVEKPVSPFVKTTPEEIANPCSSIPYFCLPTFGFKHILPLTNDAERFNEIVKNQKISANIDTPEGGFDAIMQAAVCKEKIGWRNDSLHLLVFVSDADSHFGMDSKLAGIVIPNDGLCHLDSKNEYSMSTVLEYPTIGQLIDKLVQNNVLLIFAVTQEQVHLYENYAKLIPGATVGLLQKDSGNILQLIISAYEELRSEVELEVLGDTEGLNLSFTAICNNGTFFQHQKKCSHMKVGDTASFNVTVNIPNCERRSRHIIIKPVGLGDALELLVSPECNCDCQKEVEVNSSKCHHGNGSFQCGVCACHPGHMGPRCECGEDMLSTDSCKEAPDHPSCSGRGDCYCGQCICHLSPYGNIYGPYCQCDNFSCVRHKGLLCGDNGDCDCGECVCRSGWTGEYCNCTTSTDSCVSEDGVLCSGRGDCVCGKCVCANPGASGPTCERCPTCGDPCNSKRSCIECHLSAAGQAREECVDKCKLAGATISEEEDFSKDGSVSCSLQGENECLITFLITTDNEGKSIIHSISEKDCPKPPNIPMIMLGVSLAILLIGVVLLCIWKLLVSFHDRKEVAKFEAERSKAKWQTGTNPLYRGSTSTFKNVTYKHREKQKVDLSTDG

B1: sc 298 (antibody, V domains shown)
VH: QVQLVESGGGVVQPGRSLRLSCAASGFTFSSYGMHWVRQAPGKGLEWVAVIWYGGSNKYYADSVKGRFTISRDNSKNTLYLQMNSLRAEDTAVYYCARDLAARRGDYYYYGMDVWGQGTTVTVSS
VL: SSELTQDPVVSVALGQTVRITCQGDSLRSYYLSWYQQKPGQAPVLVIYGKNNRPSGIPDRFSGSNSGNTASLTITGAQAEDEADYYCNSRDSSGNHLFGGGTKLTVL
notes: Fully human XenoMouse mAb
B2: sc 374 (antibody, V domains shown)
VH: B1 VH with G54D, D99T, L100E, A101G, A102I, R103A, R104A, G105R, D106L
VL: not shown
notes: Fully human XenoMouse mAb
B3: sc 97 (antibody, V domains shown)
VH: EVQLVQSGAEVKKPGESLKISCKGSGYSFTSYWIGWVRQMPGKGLEWMGIIYPGDSDTRYSPSFQGQVILSADKSISTAYLQWSSLKASDTAMYYCARHDESSGYYYVFDIWGQGTMVTVSS
VL: SYELTQPPSVSVSPGQTARITCSGDALPKKYAYWYQQKSGQAPVLVIYEDIKRPSGIPERFSGSSSGTMATLTISGAQVEDEADYYCYSTDSSGNHWVFFGGGTKLTVL
notes: Fully human XenoMouse mAb; also called sc 097
B4: sc 49 (antibody, V domains shown)
VH: QVQLQESGPGLVKPSQTLSLTCTVAGGSIRSGDYYWSWIRQHPGKGLEWIGNIYYSGSTYYNPSLKSRITISVATSRNQFSLKLTSVTAADTAVYYCARGGAITIFGVFDYWGQGTLVTVSS
VL: not shown
notes: Fully human XenoMouse mAb; also called sc 049
B5: sc 254 (antibody, V domains shown)
VH: QVQLQESGPGLVKPSQTLSLTCTVSGGSISSGGYYWSWIRQHPGKGLEWIGYIYYSGSTYYNPSLKSRVTISVDTSKNQFSLKLSSVTAADTAMYYCARYRGPAAGRGDFYYFGMDVWGQGTTVTVSS
VL: DIVMTQTPLSLSVTPGQPASIFCKSSQSLLNSDGKTYLCWYLQKPGQPPQLLIYEVSNRFSGVPDRFSGSGSGTDFTLKISRVEAEDVGVYYCMQGIQLPWAFFGQGTKVEIK
notes: Fully human XenoMouse mAb
B6: sc 133 (antibody, V domains shown)
VH: QVQLVQSGAEVKKPGASVKVSCKASGYTFTGYYMHWVRQAPGQGLEWMGWINPKSGDTNYAQKFQGRVTLTRDTSTSTAYMELSRLRSDDTAVYYCARRLDVWGQGTTVTVSS
VL: QSVLTQPPSVSAAPGQKVTISCSGSSSNIGNNYVSWYQQLPGTAPKLLIYDNNKRPSGIPDRFSGSKSGTSATLGITGLQTGDEADYYCGTWNSSLSAGYVFGTGTKVTV
notes: Fully human XenoMouse mAb
B7: sc 161 (antibody, V domains shown)
VH: EVQLVQSGAEVKKPGESLKISCKGSGYSFTSYWIGWVRQMPGKGLEWMGIIYPGDSDTRYSPSFQGQVTISADKSISTAYLQWSSLKASDTAMYYCARHGIAAAGFYYYYMDVWGQGTTVTVSS
VL: EIVLTQSPDTLSLSPGERASLSCRASQNVNRNYLVWYQQKPGQAPRLLIYGTSNRATGIPDRFSGSGSGTDFTLTISRLEPEDFAVYYCQQCGSLPFTFGPGTKVDIKR
notes: Fully human XenoMouse mAb
B8: sc 58 (antibody, V domains shown)
VH: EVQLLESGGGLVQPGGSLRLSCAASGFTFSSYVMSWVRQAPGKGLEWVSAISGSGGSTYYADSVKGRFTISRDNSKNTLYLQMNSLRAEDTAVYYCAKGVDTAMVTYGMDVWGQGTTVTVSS
VL: SYELTQPPSVSVSPGQTARITCSGDALPKKYAYWYQQKSGQAPVLVIYDDSKRPSGIPERFSGSSSGTMATLTISGAQVEDEADYYCYSTDSSGNHRVFGGGTKLTVL
notes: Fully human XenoMouse mAb; also called sc 058
B9: sc 264 (antibody, V domains shown)
VH: QVQLQESGPGLVKPSQTLSLTCTVSGGSISSGGYYWSWIRQHPGKGLEWIGYIYYSGRTYNNPSLKSRVTISVDTSKNQFSLKLSSVTAADTAVYYCARVATGRGDYHFYAMDVWGQGTTVTVSS
VL: SYELTQPSSVSVSPGQTARITCSGDVLAKKSARWFHQKPGQAPVLVIYKDSERPSGIPERFSGSSSGTTVTLTISGAQVEDEAAYYCYSAADNNLVFGGGTKLTVL
notes: Fully human XenoMouse mAb; Has RGD in heavy chain CDR3
B10: sc 264 RAD (antibody, V domains shown)
VH: B9 VH with G105A
VL: B9 VL
B11: sc 188 (antibody, V domains shown)
VH: QVQLQESGPGLVKPSQTLSLTCTVSGGSISSGVYYWTWIRQHPGNGLEWIGYIYYSGSTSYNPSLKSRVTISVDTSKKQFSLNLTSVTAADTAVYYCAREGPLRGDYYYGLDVWGQGTTVTVSS
VL: EIVLTQSPGTLSLSPGERATLSCRAGQTISSRYLAWYQQKPGQAPRPLIYGASSRATGIPDRFSGSGSGTDFTLTISRLEPEDFAVYYCQQYGSSPRTFGQGTKVEIK
notes: Fully human XenoMouse mAb; Has a glycosylation site (NLT) in heavy chain FR3
B12: sc 188 SDM (antibody, V domains shown)
VH: B11 VH with N83K
VL: B11 VL
B13: sc 320 (antibody, V domains shown)
VH: EVQLVESGGGLVKPGGSLRLSCAASGYTFTNYIMHWVRQAPGKGLEWVSSISISSSYIYYADSVKGRFTISRDNAKNSLYLQMNSLRAEDTAVYYCARDPVPLERRDYYYGMDVWGQGTTVTVSS
VL: QSVLTQPPSMSAAPGQKVTISCSGSSSNIGNNYVSWYQQLPGTAPKLLIYDNNKRPSGIPDRFSGSKSGTSATLGITGLQTGDEADYYCGTWDSSLSAGVFGGGTKLTVL
notes: Fully human XenoMouse mAb
B14: sc 277 (antibody, V domains shown)
VH: EVQLVQSGAEVKKPGESLKISCKGSGYSFPSYWIGWVRQMPGKGLEWMGIIYPGDSDTRYSPSFQGQVTISADKSISTAYLQWSSLKASDTAMYYCARHPMEDGMDVWGQGTTVTVSS
VL: SYELTQPPSVSVSPGQTARITCSGDALPKKYAFWYQQKSGQAPVLVIYDDNKRPSGIPERFSGSSSGTMATLTITGAQVEDEADYYCYSTDSSGHHVFGGGTKLTVL
notes: Fully human XenoMouse mAb

Legend:
[1] = molecular target: T2, soluble αVβ6 (human, UniProt P06756 31-992; P18564 22-709); test: competition ELISA: soluble αVβ6 (250 ng/ml) pre-incubated with the mAb, then binding to plate-coated GST-LAP, bound αVβ6 detected with mAb 2075
T2 construct: extracellular domain; also called soluble antigen; soluble αVβ6 protein
Protocol: The wells were then washed three times using 300 μL/well of assay diluent. […] The wells were then washed three times using 300 μL/well of assay diluent, and incubated with goat anti-mouse IgG Fc-peroxidase at 400 ng/ml in assay diluent (50 μL/well) for one hour at room temperature. The wells were then washed three times using 300 μL/well of assay diluent, and developed using 1-step TMB (Neogen) at a total volume of 50 μL/well. After 15 minutes, the developing reaction was quenched with 50 μL/well of 1N Hydrochloric acid.

[2] = molecular target: T3, cynomolgus αVβ6 on cells (cynomolgus); test: FACS, supernatant, HEK-293 cells transfected with cynomolgus αV and β6
T3 construct: whole, on cells; also called macaque αVβ6; Mac AVB6
Protocol: The assays were performed as follows. […] The cells were then pelleted, the supernatant discarded, and resuspended in FACS buffer and incubated for 30 minutes at 37° C. Cells were then washed twice with FACS buffer and resuspended in a final volume of 100 μL FACS buffer per well.
HEK-293 cells were transiently transfected with cynomolgus αV and cynomolgus β6. After 48 hours, the cells were collected and resuspended in FACS buffer to reach a final concentration of approximately 50,000 cells in 100 μL.
Approximately 100,000 cells total, comprising a 50:50 mix of CFSE-labeled A375M cells and transfected 293 cells, were used in each reaction as follows. 100 μL of CFSE-labeled A375M cells and 100 μL of 293 cells were dispensed into a V-bottom plate. The cells in the plate were pelleted at 1500 rpm for 3 minutes, and then resuspended in 100 μL FACS buffer. The pelleting step was repeated, and the FACS buffer supernatant was removed. The harvested antibody-containing supernatants, or control primary antibodies were added in a volume of 50 μL and the cells were resuspended. […] The plate was incubated on ice for 45 minutes, after which 100 μL FACS buffer was added to dilute the primary antibody. The cells were then pelleted by centrifuging at 1500 rpm for 3 minutes, and the pellet was resuspended in 100 μL FACS buffer. The pelleting step was repeated, and the FACS buffer supernatant was removed. Cells were then resuspended in the appropriate secondary antibody (5 μg/ml) with 7AAD dye (10 μg/ml), and stained on ice for 7 minutes. Then 150 μL of FACS buffer was added and the cells were pelLeted at 1500 rpm for 3 minutes, after which the cells were washed in 100 μL FACS buffer, pelleted, and then resuspended in 250 μL buffer and added to FACS tubes. Samples were analyzed on a high throughput FACS machine and analyzed using Cell Quest Pro software.

[3] = molecular target: T4, cynomolgus αV on transfected HEK-293 cells (cynomolgus, UniProt A0A2K5WCD3 31-1048); test: FACS, purified mAb, transiently transfected HEK-293 cells (parental cells 49)
T4 construct: Chain transfected alone; also called Cynomolgus alphaV
Protocol: (§1) Cross-reactivity of the mAbs to macaque and mouse αVβ6 was tested on the purified mAbs using FACS analysis on HEK-293 cells transiently transfected with cynomolgus or mouse αV, β6, or αVβ6. Approximately 48 hours after transfection, the cells were collected and resuspended in FACS buffer to reach a final concentration of approximately 50,000 cells in 100 μL.
(§2) Approximately 100,000 cells total, were used in each reaction as follows. 200 μL of 293 cells were dispensed into a V-bottom plate. The cells in the plate were pelleted at 1500 rpm for 3 minutes, and then resuspended in 100 μL FACS buffer. The pelleting step was repeated, and the FACS buffer supernatant was removed. The purified mAbs, or control primary antibodies were added in a volume of 50 μL and the cells were resuspended. […] The plate was incubated on ice for 45 minutes, after which 100 μL FACS buffer was added to dilute the primary antibody. The cells were then pelleted by centrifuging at 1500 rpm for 3 minutes, and the pellet was resuspended in 100 μL FACS buffer. The pelleting step was repeated, and the FACS buffer supernatant was removed. Cells were then resuspended in the appropriate secondary antibody (5 μg/ml) with 7AAD dye (10 μg/ml), and stained on ice for 7 minutes. Then 150 μL of FACS buffer was added and the cells were pelleted at 1500 rpm for 3 minutes, after which the cells were washed in 100 μL FACS buffer, pelleted, and then resuspended in 250 μL buffer and added to FACS tubes. Samples were analyzed on a high throughput FACS machine and analyzed using Cell Quest Pro software.

[4] = molecular target: T3, cynomolgus αVβ6 on cells; test: as above
Protocol: as §1, §2

[5] = molecular target: T5, mouse αVβ6 on cells (mouse, UniProt P43406 31-1044; Q9Z0T9 22-787); test: as above
T5 construct: whole, on cells; also called Mouse alphaVbeta6
Protocol: as §1, §2

[6] = molecular target: T4, cynomolgus αV on transfected HEK-293 …; test: FACS, purified mAb, transiently transfected HEK-293 cells
Protocol: as §1, §2

[7] = molecular target: T3, cynomolgus αVβ6 on cells; test: as above
Protocol: as §1, §2

[8] = molecular target: T1, cynomolgus β6 on transfected HEK-293 …; test: as above
Protocol: as §1, §2

[9] = molecular target: T6, human αVβ6 integrin on cells (human, UniProt P06756 31-1048; P18564 22-788); test: FACS, 293T-αVβ6 cells, 20 ug/ml
T6 construct: whole, on cells; also called alphaVbeta6
Protocol: (§3) Cells were divided between reactions in a V-bottom 96-well plate (Sarstedt), and the cells in the plate were pelleted at 1500 rpm for 3 minutes, after which the HBSS supernatant was removed. The primary antibody was added at the concentration indicated in Table 19 in a volume of 50 μL, and the cells were resuspended and thereafter incubated on ice for 60 minutes. After incubation, the cells were pelleted by centrifugation at 1500 rpm for 3 minutes, resuspended in 100 μL wash buffer, and then pelleted again. Cells were then resuspended in the appropriate secondary antibody at 2 μg/ml with 10 μg/ml 7AAD, and stained on ice for 7 minutes, after which 150 μL of wash buffer was added, and cells were pelleted at 1500 rpm for 3 minutes and then resuspended in 100 μL of HBSS with 1% BSA. Samples were read on a FACS machine with a HTS attachment and the data was analyzed using Cell Quest Pro software.

[10] = molecular target: T6, human αVβ6 integrin on cells; test: FACS, 293T-αVβ6 cells, 5 ug/ml
Protocol: as §3

[11] = molecular target: T6, human αVβ6 integrin on cells; test: FACS titration on K562 cells stably expressing human αVβ6, done as in Example 18, averaged geometric mean fluorescence
[12] = molecular target: T6, human αVβ6 integrin on cells; test: FACS, 293T-αVβ6 cells, 1.25 ug/ml
Protocol: as §3

[13] = molecular target: T6, human αVβ6 integrin on cells; test: FACS titration on K562 cells stably expressing human αVβ6, Cy5 goat anti-human detection, averaged geometric mean fluorescence
Protocol: K562 cells expressing αVβ6 were resuspended in filtered HBS buffer containing 1 mM of MgCl₂ and 1 mM of CaCl₂ at a concentration of approximately 6 million cells/mL. The cells were kept on ice. […] The 12th well in each row contained buffer only. Titrations were done in triplicate. Additional HBS and cells were added to each well so that the final volume was 300 μL/well and each well contained approximately 120,000 cells. […] The plates were then shaken for 40 minutes at 4° C., and thereafter were spun and washed once again three times with HBS. The Geometric Mean Fluorescence (GMF) of 20,000 “events” for each mAb concentration was recorded using a FACSCalibur instrument, and the corresponding triplicate titration points were averaged to give one GMF point for each mAb concentration. A plot of the averaged GMF as a function of molecular mAb concentration with Scientist software was fit nonlinearly using the equation:

T6 sequence (P06756 31-1048, one chain of several): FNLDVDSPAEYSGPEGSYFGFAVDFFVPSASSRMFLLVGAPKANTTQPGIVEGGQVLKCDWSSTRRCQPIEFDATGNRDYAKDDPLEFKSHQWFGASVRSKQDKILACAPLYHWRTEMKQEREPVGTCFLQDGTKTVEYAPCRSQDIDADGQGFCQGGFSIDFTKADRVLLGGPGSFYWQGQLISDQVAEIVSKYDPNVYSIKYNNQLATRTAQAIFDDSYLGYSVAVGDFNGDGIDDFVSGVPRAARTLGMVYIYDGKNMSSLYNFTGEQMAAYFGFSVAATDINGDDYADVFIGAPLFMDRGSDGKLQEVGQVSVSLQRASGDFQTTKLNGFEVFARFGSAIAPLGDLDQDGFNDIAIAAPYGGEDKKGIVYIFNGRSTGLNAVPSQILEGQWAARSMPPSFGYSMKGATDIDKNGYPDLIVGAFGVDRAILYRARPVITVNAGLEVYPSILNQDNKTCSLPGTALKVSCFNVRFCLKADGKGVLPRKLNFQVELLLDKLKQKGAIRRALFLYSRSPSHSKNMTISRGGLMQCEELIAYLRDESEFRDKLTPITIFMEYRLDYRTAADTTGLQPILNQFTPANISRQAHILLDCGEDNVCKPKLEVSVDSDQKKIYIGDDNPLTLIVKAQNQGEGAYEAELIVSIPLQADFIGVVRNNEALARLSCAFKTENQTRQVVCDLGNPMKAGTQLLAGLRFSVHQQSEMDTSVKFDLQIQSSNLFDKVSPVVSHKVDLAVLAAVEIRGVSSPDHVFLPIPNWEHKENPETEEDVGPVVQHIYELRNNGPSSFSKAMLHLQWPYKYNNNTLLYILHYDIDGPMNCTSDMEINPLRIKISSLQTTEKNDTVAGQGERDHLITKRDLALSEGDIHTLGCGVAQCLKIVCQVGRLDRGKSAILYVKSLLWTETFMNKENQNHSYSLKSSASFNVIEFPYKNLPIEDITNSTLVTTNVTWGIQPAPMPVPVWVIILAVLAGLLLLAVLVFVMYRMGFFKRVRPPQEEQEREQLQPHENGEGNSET
T2 sequence (P06756 31-992, one chain of several): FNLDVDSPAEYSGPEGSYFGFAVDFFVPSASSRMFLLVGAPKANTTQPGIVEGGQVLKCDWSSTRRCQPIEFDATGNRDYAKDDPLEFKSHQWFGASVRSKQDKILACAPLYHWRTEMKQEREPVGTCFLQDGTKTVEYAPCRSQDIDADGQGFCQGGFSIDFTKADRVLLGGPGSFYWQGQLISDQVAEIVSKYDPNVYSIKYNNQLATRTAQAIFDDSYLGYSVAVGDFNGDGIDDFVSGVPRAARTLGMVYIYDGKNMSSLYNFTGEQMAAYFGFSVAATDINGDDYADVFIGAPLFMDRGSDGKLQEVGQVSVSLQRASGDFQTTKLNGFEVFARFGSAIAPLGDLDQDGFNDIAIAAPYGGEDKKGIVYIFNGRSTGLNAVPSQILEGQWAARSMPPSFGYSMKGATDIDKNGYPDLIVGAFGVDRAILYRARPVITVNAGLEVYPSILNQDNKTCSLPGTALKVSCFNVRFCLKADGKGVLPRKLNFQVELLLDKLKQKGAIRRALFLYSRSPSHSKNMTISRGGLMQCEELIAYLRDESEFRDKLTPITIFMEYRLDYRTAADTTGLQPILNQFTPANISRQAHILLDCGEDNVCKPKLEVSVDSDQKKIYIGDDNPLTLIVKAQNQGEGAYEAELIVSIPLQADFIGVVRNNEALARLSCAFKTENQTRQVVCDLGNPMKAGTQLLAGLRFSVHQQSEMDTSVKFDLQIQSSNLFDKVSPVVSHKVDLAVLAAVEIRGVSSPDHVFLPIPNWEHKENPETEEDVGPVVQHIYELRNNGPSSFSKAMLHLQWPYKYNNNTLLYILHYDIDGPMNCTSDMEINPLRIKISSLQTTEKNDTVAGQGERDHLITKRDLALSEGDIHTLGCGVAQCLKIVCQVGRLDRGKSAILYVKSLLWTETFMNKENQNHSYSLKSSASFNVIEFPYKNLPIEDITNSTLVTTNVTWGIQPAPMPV
T4 sequence (A0A2K5WCD3 entry or part of it limits assumed): as the sequence (P06756 31-1048, one chain of several) above, with M118L, L264I, E270D, R562W, S609F, N660S, V753I, T840A counted along it
T5 sequence (P43406 31-1044, chain 1 of 2): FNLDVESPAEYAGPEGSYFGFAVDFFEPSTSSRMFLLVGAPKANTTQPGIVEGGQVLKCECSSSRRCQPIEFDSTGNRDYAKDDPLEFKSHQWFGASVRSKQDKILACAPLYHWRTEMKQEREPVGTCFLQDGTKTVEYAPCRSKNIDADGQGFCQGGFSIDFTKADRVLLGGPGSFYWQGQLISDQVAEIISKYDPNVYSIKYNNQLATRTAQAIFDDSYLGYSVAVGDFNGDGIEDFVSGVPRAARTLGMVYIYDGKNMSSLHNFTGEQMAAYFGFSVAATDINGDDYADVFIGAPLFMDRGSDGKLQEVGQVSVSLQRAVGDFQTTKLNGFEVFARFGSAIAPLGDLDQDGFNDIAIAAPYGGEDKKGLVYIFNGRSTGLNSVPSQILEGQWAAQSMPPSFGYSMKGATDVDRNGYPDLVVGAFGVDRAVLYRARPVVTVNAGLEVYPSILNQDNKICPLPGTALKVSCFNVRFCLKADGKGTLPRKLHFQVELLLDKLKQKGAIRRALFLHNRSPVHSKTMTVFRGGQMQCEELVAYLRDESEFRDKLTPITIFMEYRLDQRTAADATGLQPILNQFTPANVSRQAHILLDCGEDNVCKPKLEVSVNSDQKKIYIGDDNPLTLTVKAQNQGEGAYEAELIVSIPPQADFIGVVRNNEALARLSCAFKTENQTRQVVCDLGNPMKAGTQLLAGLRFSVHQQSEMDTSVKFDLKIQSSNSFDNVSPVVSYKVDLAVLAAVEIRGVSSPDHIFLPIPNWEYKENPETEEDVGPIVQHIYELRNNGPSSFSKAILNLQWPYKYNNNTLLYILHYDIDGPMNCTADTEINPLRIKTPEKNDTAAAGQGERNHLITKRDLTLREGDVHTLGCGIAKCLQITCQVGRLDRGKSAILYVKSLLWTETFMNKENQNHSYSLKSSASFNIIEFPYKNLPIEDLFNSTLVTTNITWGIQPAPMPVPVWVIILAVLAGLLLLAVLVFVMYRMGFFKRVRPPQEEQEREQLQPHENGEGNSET
T5 sequence (Q9Z0T9 22-787, chain 2 of 2): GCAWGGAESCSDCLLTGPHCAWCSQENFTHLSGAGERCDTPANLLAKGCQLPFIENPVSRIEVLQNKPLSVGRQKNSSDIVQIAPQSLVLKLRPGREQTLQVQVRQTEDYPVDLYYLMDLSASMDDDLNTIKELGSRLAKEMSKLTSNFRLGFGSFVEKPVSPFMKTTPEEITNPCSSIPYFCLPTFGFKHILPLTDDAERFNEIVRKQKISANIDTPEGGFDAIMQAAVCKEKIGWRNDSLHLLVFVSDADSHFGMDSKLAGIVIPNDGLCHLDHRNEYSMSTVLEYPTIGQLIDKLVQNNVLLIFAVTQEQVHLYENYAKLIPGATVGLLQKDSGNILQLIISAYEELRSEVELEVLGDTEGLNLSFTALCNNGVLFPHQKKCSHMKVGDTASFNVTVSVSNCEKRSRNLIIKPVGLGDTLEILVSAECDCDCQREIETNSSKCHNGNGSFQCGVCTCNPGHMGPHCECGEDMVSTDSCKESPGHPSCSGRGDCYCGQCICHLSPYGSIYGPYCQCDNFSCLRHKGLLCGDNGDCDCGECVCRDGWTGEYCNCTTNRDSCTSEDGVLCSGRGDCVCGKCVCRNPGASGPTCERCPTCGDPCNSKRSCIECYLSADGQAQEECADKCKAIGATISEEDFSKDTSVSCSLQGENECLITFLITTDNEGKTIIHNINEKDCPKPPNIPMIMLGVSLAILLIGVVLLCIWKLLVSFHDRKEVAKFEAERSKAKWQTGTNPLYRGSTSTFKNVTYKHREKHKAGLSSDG

Row | Binder | Mac AVB6 % Cells Shifted [2] [%] | Mac AVB6 GeoMean [2] | other results
1 | B1 | 53 | 63.1 | IC50 (read off the curve) [1]: ~0.2 µg/mL; percent of cells shifted [3]: 48%; percent of cells shifted [4]: 38%; percent of cells shifted [5]: 53%
2 | B2 | – | 61.8 | –
3 | B3 | 35 | 37 | –
4 | B4 | 23 | 30.2 | –
5 | B5 | – | 78.5 | IC50 (read off the curve) [1]: ~0.3 µg/mL
6 | B6 | 32 | 35.2 | percent of cells shifted [6]: 5%; percent of cells shifted [7]: 28%; percent of cells shifted [8]: 10%
7 | B7 | 14 | 33 | –
8 | B8 | 25 | 22.8 | –
9 | B9 | 55 | 66.4 | –
10 | B10 | – | – | Geometric Mean Shift [9]: 7240 arbitrary units; Geometric Mean Shift [10]: 6840 arbitrary units; EC50 (read off the curve) [11]: ~0.08 nM; Geometric Mean Shift [12]: 4890 arbitrary units
11 | B11 | – | 23.9 | IC50 (read off the curve) [1]: ~0.2 µg/mL; EC50 (read off the curve) [13]: ~0.06 nM
12 | B12 | – | – | Geometric Mean Shift [9]: 6760 arbitrary units; Geometric Mean Shift [10]: 6820 arbitrary units; Geometric Mean Shift [12]: 4530 arbitrary units
13 | B13 | 19 | 33.5 | –
14 | B14 | 35 | 33.4 | –
